Patent US9284543B2, “Neutral active soluble truncated PH20 polypeptides and uses thereof” (Halozyme, Inc., priority 2008, dated 2016)
Changes are numbered by the printed parent chain. In names and notes the source's numbering stands.

B1: SPAM1-LFLI: C-terminally truncated human PH20, precursor 502 aa (SEQ ID NO:47), mature 467 aa (SEQ ID NO:99) (protein, listed as Homo sapiens)
chain 1: MGVLKFKHIFFRSFVKSSGVSQIVFTFLLIPCCLTLNFRAPPVIPNVPFLWAWNAPSEFCLGKFDEPLDMSLFSFIGSPRINATGQGVTIFYVDRLGYYPYIDSITGVTVNGGIPQKISLQDHLDKAKKDITFYMPVDNLGMAVIDWEEWRPTWARNWKPKDVYKNRSIELVQQQNVQLSLTEATEKAKQEFEKAGKDFLVETIKLGKLLRPNHLWGYYLFPDCYNHHYKKPGYNGSCFNVEIKRNDDLSWLWNESTALYPSIYLNTQQSPVAATLYVRNRVREAIRVSKIPDAKSPLPVFAYTRIVFTDQVLKFLSQDELVYTFGETVALGASGIVIWGTLSIMRSMKSCLLLDNYMETILNPYIINVTLAAKMCSQVLCQEQGVCIRKNWNSSDYLHLNPDNFAIQLEKGGKFTVRGKPTLEDLEQFSEKFYCSCYSTLSCKEKADVKDTDAVDVCIADGVCIDAFLKPPMETEEPQIFYNASPSTLSATMFIVSILFLI
chain 2: LNFRAPPVIPNVPFLWAWNAPSEFCLGKFDEPLDMSLFSFIGSPRINATGQGVTIFYVDRLGYYPYIDSITGVTVNGGIPQKISLQDHLDKAKKDITFYMPVDNLGMAVIDWEEWRPTWARNWKPKDVYKNRSIELVQQQNVQLSLTEATEKAKQEFEKAGKDFLVETIKLGKLLRPNHLWGYYLFPDCYNHHYKKPGYNGSCFNVEIKRNDDLSWLWNESTALYPSIYLNTQQSPVAATLYVRNRVREAIRVSKIPDAKSPLPVFAYTRIVFTDQVLKFLSQDELVYTFGETVALGASGIVIWGTLSIMRSMKSCLLLDNYMETILNPYIINVTLAAKMCSQVLCQEQGVCIRKNWNSSDYLHLNPDNFAIQLEKGGKFTVRGKPTLEDLEQFSEKFYCSCYSTLSCKEKADVKDTDAVDVCIADGVCIDAFLKPPMETEEPQIFYNASPSTLSATMFIVSILFLI
modifications: HuPH20 precursor 1-502; Mature HuPH20 36-502
B2: SPAM1-ILFL: C-terminally truncated human PH20, precursor 501 aa (SEQ ID NO:6), mature 466 aa (SEQ ID NO:58) (protein, listed as Homo sapiens)
chain 1: MGVLKFKHIFFRSFVKSSGVSQIVFTFLLIPCCLTLNFRAPPVIPNVPFLWAWNAPSEFCLGKFDEPLDMSLFSFIGSPRINATGQGVTIFYVDRLGYYPYIDSITGVTVNGGIPQKISLQDHLDKAKKDITFYMPVDNLGMAVIDWEEWRPTWARNWKPKDVYKNRSIELVQQQNVQLSLTEATEKAKQEFEKAGKDFLVETIKLGKLLRPNHLWGYYLFPDCYNHHYKKPGYNGSCFNVEIKRNDDLSWLWNESTALYPSIYLNTQQSPVAATLYVRNRVREAIRVSKIPDAKSPLPVFAYTRIVFTDQVLKFLSQDELVYTFGETVALGASGIVIWGTLSIMRSMKSCLLLDNYMETILNPYIINVTLAAKMCSQVLCQEQGVCIRKNWNSSDYLHLNPDNFAIQLEKGGKFTVRGKPTLEDLEQFSEKFYCSCYSTLSCKEKADVKDTDAVDVCIADGVCIDAFLKPPMETEEPQIFYNASPSTLSATMFIVSILFL
chain 2: LNFRAPPVIPNVPFLWAWNAPSEFCLGKFDEPLDMSLFSFIGSPRINATGQGVTIFYVDRLGYYPYIDSITGVTVNGGIPQKISLQDHLDKAKKDITFYMPVDNLGMAVIDWEEWRPTWARNWKPKDVYKNRSIELVQQQNVQLSLTEATEKAKQEFEKAGKDFLVETIKLGKLLRPNHLWGYYLFPDCYNHHYKKPGYNGSCFNVEIKRNDDLSWLWNESTALYPSIYLNTQQSPVAATLYVRNRVREAIRVSKIPDAKSPLPVFAYTRIVFTDQVLKFLSQDELVYTFGETVALGASGIVIWGTLSIMRSMKSCLLLDNYMETILNPYIINVTLAAKMCSQVLCQEQGVCIRKNWNSSDYLHLNPDNFAIQLEKGGKFTVRGKPTLEDLEQFSEKFYCSCYSTLSCKEKADVKDTDAVDVCIADGVCIDAFLKPPMETEEPQIFYNASPSTLSATMFIVSILFL
modifications: HuPH20 precursor 1-501; mature HuPH20 36-501
B3: N166A/N254A: PH20sHis double mutant, SEQ ID NO:208 (protein)
chain: MGVLKFKHIFFRSFVKSSGVSQIVFTFLLIPCCLTLNFRAPPVIPNVPFLWAWNAPSEFCLGKFDEPLDMSLFSFIGSPRINATGQGVTIFYVDRLGYYPYIDSITGVTVNGGIPQKISLQDHLDKAKKDITFYMPVDNLGMAVIDWEEWRPTWARNWKPKDVYKARSIELVQQQNVQLSLTEATEKAKQEFEKAGKDFLVETIKLGKLLRPNHLWGYYLFPDCYNHHYKKPGYNGSCFNVEIKRNDDLSWLWAESTALYPSIYLNTQQSPVAATLYVRNRVREAIRVSKIPDAKSPLPVFAYTRIVFTDQVLKFLSQDELVYTFGETVALGASGIVIWGTLSIMRSMKSCLLLDNYMETILNPYIINVTLAAKMCSQVLCQEQGVCIRKNWNSSDYLHLNPDNFAIQLEKGGKFTVRGKPTLEDLEQFSEKFYCSCYSTLSCKEKADVKDTDAVDVCIADGVCIDAFLKPPMETEEPQIFYNASPSTLSHHHHHH
modifications: His tag; PH20sHis N166A/N254A
B4: N82A/N166A/N254A: PH20sHis triple mutant, SEQ ID NO:209 (protein)
chain: B3 chain with N82A
modifications: His tag; PH20sHis N82A/N166A/N254A
B5: N82A: PH20sHis N-glycosylation site mutant N82A, SEQ ID NO:202 (protein)
chain: B3 chain with N82A, A166N, A254N
modifications: His tag; PH20sHis N82A
B6: N166A: PH20sHis N-glycosylation site mutant N166A, SEQ ID NO:203 (protein)
chain: B3 chain with A254N
modifications: His tag; PH20sHis N166A

Tests used:
[1] = Microtiter hyaluronidase activity assay with biotinylated-hyaluronic acid; assay type: biochemical; conditions: for pH 5.5 Activity / pH 7.4 Activity: 72 hour post transfection supernatant; for Hyaluronidase activity (in words): pH 7.4 and pH 5.5
CHO-S cells = assay: PI-PLC treatment of expressing cells, Western blot of media and cells; assay type: cell-based, Chinese Hamster; conditions: cells incubated with PI-PLC for 2 hours
Procedure: In this example, following transient expression, as described in Example 2 above, the media and cells were harvested separately and analyzed for PH20 expression and solublility by Western blot analysis. Solubility of the C-terminus truncation mutants was determined by examining whether the expressed protein was present in the growth media or in the cells. […] Cells expressing these mutants were treated with phosphoinositol-phospholipase C (PI-PLC), which cleaves the GPI-anchor allowing the release of soluble protein into the media, and the presence of PH20 in the resulting media and cells was determined by Western blot analysis.
Following expression of rHuPH20 in CHO—S cells for 72 hours, as described in Example 2A above, the media and cells were harvested separately. The cells were washed with serum-free media followed by the addition of 2 mL serum-free media per well. PI-PLC (0.5 units/well) was added to each well and the cells were incubated in the PI-PLC for 2 hours. The resultant media and cells were analyzed by Western blot analysis as described above.
Two plates each of rHuPH20 expressing CHO—S cells, one for treatment with PI-PLC and one without treatment with PI-PLC, were prepared for each C-terminus mutant as described in Example 2B above. Following expression for 48 hours, for cells untreated with PI-PLC, the media and cells were harvested separately. The harvested media was spun down, concentrated to a volume of 10 mL, and buffer exchanged into PBS using an Amicon 30 kD MWCO concentrator. The cells were rinsed with cold PBS and scraped and resuspended in 1.2 mL PBS with protease inhibitor Set III (Cat No. 539134, Calbiochem). The resuspended cells were briefly sonicated to prepare whole-cell extract. For PI-PLC treatment of cells, following expression for 48 hours, the untreated media was harvested, as described above. The cells were rinsed once with fresh CD DG44 medium with Glutamax-1, and the media was replaced with 12 mL fresh detergent free CD DG44 medium supplemented with Glutamax-1 with 3.0 units PI-PLC per dish, and the cells were incubated for 2 hours at 37° C. with 5% CO2. After 2 hours, the PI-PLC media and cells were harvested separately, as described above. The resultant untreated media and cells, and PI-PLC treated media and cells, were analyzed by Western blot analysis as described above.

[2] = Hyaluronidase activity of N-glycan site specific deglycosylation mutants (biotinylated-HA assay); assay type: biochemical; conditions: media of transfected CHO-S cells
Procedure: In short, a 4×BH 96-well plate was coated with biotinylated-HA (1.1 MDa). The 72 hour post transfection supernatant from cells transfected with human PH20 hyaluronidase carboxy-terminus deletion mutants was diluted in buffer at either pH 7.4 or pH 5.5 and added to individual wells of the plate and allowed to incubate at 37° C. for 90 minutes. The reaction was terminated by addition of 4M guanidine HCl. The wells were washed 4× with Phosphate Buffered Saline with Tween20 (PBST) to remove any digested biotinylated-HA followed by addition of streptavidin-HRP for 1 hour at room temperature. The wells were washed 4× with PBST and the plate was developed with TMB. The plate was read at 450 nm using an ELISA plate reader. Hyaluronidase activity (in Units/mL) was determined by interpolating the measured absorbance at 450 nm with a hyaluronidase reference standard curve. Full length mature human PH20 hyaluronidase and untransfected CHO cells were used as positive and negative controls.
PH20sHis (SEQ ID NO:210) was used as a template for mutagenesis of each asparagine residue to alanine using QuikChange® Site-Directed Mutagenesis Kit (Cat No. 200518, Stratagene). […] Six single mutants were generated, one for each of the N-glycosylation sites. Additionally, three double mutants and a triple mutant were generated for asparagines N82, N166 and N254, all of which are occupied by complex type glycans. Finally, a double mutant N368A/N393A was generated, lacking high mannose glycans. The mutants were transfected into CHO—S cells and expression was performed as described in Example 2A. Secretion into the media and hyaluronidase activity were determined as described in Examples 3 and 5, above.

Molecule | pH 5.5 Activity ([1]; Table 6A) [Units/ml] | pH 7.4 Activity ([1]; Table 6A) [Units/ml] | Hyaluronidase activity (in words) [1] | Expressed in Media Following Addition of PI-PLC (CHO-S cells) | pH 5.5 Activity ([1]; Table 6) [Units/ml] | pH 7.4 Activity ([1]; Table 6) [Units/ml] | Activity pH 5.5 [2] | Activity pH 7.4 [2]
B1 | 0.324 | 0.608 | little detectable activity | YES | – | – | – | –
B2 | 0.122 | 0.446 | little detectable activity | YES | 0.0405 | 0.0405 | – | –
B3 | – | – | – | – | – | – | YES | YES
B4 | – | – | – | – | – | – | YES | YES
B5 | – | – | – | – | – | – | YES | YES
B6 | – | – | – | – | – | – | YES | YES
